Data reported in PMC7385176, “Engineering a disulfide-gated switch in streptavidin enables reversible binding without sacrificing binding affinity” (Scientific Reports, 2020).
Where two headings read alike, the source gives them in different places.

Legend:
[1] = Thermostability assay (heating in SDS, SDS-PAGE of tetramer); format: physicochemical; conditions: for denaturation of the tetramer: presence of biotin
Experimental: To assess thermostability, SDS was added to 2% to wild-type or previously oxidized M88 or M112 and was incubated in the presence or absence of 5 mM biotin and in the presence and absence of 200 mM β-mercaptoethanol for 15 min. The samples were heated at 75 or 95 °C for 1 h and aliquots taken every 5 min for the first 30 min, and then at 45 and 60 min. Samples from each time point were run on a 12% SDS-PAGE gel, which were than stained with Coomassie blue. Band intensity was quantified using ImageJ software and the fraction of protein that remained tetrameric was determined relative to time zero. The band intensities for a series of standards was determined to indicate the linear range for quantification.

[2] = Biotin-4-fluorescein on-rate assay; format: binding; conditions: 25 °C
Experimental: Association kinetics were also monitored by utilizing B4F. […] 20 μL streptavidin was added and measurements were started immediately on a Horiba FluoroMax-4 spectrofluorometer with 490 nm excitation/525 nm emission and 2 and 15 nm slit widths, respectively, for the monochromator. Protein concentrations used were: 0.4, 0.8, 1.6, 2.4, 3.2 nM for wt; 0.8, 1.6, 3.2, 6.4 nM for oxidized M112; 0.4, 0.8, 1.6, 3.2 nM for reduced M112; 0.77, 1.5, 3.1, 6.1 nM for reduced M88 and 6.25, 12.5, 25, 50 nM for traptavidin. For oxidized M88, measurements were done in 60 μL total volume using 10 nM B4F and 50, 100, 200 and 400 nM M88.

[3] = Biotin-4-fluorescein off-rate assay (competitive, fluorescence quenching; Arrhenius extrapolation)
Experimental: Dissociation kinetics were measured with a competitive assay exploiting the fluorescence quenching of B4F upon binding to streptavidin[13],[30]. In a total volume of 200 μL, 50 nM streptavidin, 10 nM B4F (Invitrogen), 50 mM NaCl, 1 mM EDTA, 20 mM Tris pH 8, were incubated for 30 min. Biotin was added to 0.1 mM to prevent B4F re-association and fluorescence was monitored using a Tecan Infinite M200 plate reader with 485 nm excitation/525 nm emission for 12 h at 25 °C. The maximum, with all B4F unbound, and minimum, with all B4F bound, fluorescence was determined with similar mixtures in the absence of either streptavidin or biotin, respectively, and the fraction of B4F released at each time point was calculated as %B4FReleased=response-min/max-min×100% . […] The rapid phase was ignored and off-rate constants were determined by nonlinear least squares fitting of the data to the single exponential function y=1-e^kt .
High-temperature kinetics were measured by the same competitive assay but instead using a Horiba Jobin–Yvon FluoroMax-4 spectrofluorometer. To limit evaporation and condensation within the cuvette, it was filled to the top with 4 mL of solution using the same concentrations of reagents as above. Fluorescence was initially measured without streptavidin, giving the maximum, unquenched signal. Streptavidin was then added and allowed to equilibrate until a constant fluorescent signal was achieved, and unlabelled biotin was added to start the experiment. At these higher temperatures, the rapid release phase was more apparent and accounted for by fitting the data to the double exponential function y=max-ae^-kat-be^-kbt. The linear Arrhenius plot was generated by plotting ln(koff) against 1/temperature. A linear least squares fit to the function lnkoff=lnA-Ea/RT was used to extrapolate the dissociation constant at lower temperatures.

[4] = Rate of disulfide bond formation (Alexa Fluor 633 maleimide labelling); format: physicochemical; conditions: 10 mM GSSG
Source text: Protein disulfide bond formation was catalyzed by thiol-disulfide exchange with either oxidized glutathione (GSSG) or 2,2′-dipyridyldisulfide. Disulfide bonds were inferred by selectively labelling free Cys with Alexa Fluor 633 C5 maleimide (Invitrogen) and subsequent separation by Tricine SDS-PAGE[50]. Detection is based on both fluorescence and a mobility shift due to the large size of these labels (~ 1.3 kDa each, ~ 2.6 kDa if both cysteines in M88 or M112 react). Ratios of reactants were based on those previously described for saturation labelling. Because the N- and C-terminal tails are susceptible to degradation by trace proteases, leading to band heterogeneity in the gel, core-form versions of M88 and M112 were primarily used for this assay. […] Immediately after the run, fluorescence was measured with excitation by 635 nm laser and emission collected through a 665 nm long-pass filter on a Typhoon FLA 9,500 laser scanner (GE Healthcare).
To measure the time course of disulfide formation, streptavidin muteins were reduced with TCEP which was subsequently removed by centrifugal filtration. […] Fluorescence intensity of each band was quantified using ImageQuant software and the amount off free Cys at each timepoint was determined relative to the initial amount. […]

[5] = cited from earlier work

With “M88 oxidized: M88 (N49C/A86C streptavidin mutein) with the Cys-49/Cys-86 disulfide bond formed” the “tetramer state after heating” value ([1]; 75 °C, without biotin, 60 min incubation) was “remains tetrameric”, the “denaturation of the tetramer” value ([1]; 95 °C, 60 min incubation) was “no appreciable denaturation” and the “decrease in rate of association compared to the reduced form of M88” value [2] was 18.5 fold. For the same substance, the “decrease in rate of association compared to wild-type streptavidin” value [2] was 117 fold, the kon ([2]; B4F, ± standard error) was 4.6 ± 0.3 × 10^5 M^-1 s^-1 and the “change in B4F fluorescence (dissociation)” value ([3]; 25 °C, after 12 h) was “no change in B4F fluorescence measurable”. The “rate of dissociation lower than wild-type streptavidin” value ([3]; 25 °C, extrapolated) was 225 fold, the “stability during kinetics measurement” value ([3]; 90 °C) was “appeared to be stable” and the “rate of dissociation relative to traptavidin” value ([3]; Arrhenius plot, 25–90 °C) was “approximately half”. The t1/2 ([3]; B4F, 25 °C, calculated as ln(2)/koff) was 18.3 ± 6.1 years and the koff ([3]; B4F, 25 °C, extrapolated from the Arrhenius plot) was 1.2 ± 0.4 × 10^–9 s^-1.

With “M112: streptavidin mutein G26C/A46C with a Cys-26/Cys-46 disulfide bond on the N-terminal side of loop 3–4” the “pseudo-first order rate constant of disulfide bond formation” value ([4]; 21 °C) was 0.14 ± 0.02 h⁻¹, the “pseudo-first order rate constant of disulfide bond formation” value ([4]; 37 °C) was 0.41 ± 0.06 h⁻¹ and the “increase in rate of dissociation for B4F, oxidized vs reduced M112” value ([3]; 25 °C) was ~ 60 fold.

With “Wild-type: 66-kDa homotetrameric biotin-binding protein from Streptomyces avidinii; obtained from Bio Basic” the “time to denature completely” value ([1]; 75 °C, absence of biotin) was no more than 5 min, the “time to complete denaturation” value ([1]; 95 °C, biotin absent) was “less than 1 min” and the “denaturation of the tetramer” value ([1]; 95 °C, 60 min incubation) was “no appreciable denaturation”. For the same substance, the melting temperature ([5]; apo-streptavidin) was 75.5 °C, the “state at boiling temperatures” value ([5]; presence of SDS) was “remains tetrameric and bound to biotin” and the melting temperature ([5]; streptavidin–biotin complex) was 112.2 °C.
